B1: CHUP1_611-1004 (CHUP1-C), C-terminal fragment of CHLOROPLAST UNUSUAL POSITIONING 1 (domain or fragment)
chain: ITATGDQSNESNESNEGKASENAATVTKMKLVDIEKRPPRVPRPPPRSAGGGKSTNLPSARPPLPGGGPPPPPPPPGGGPPPPPGGGPPPPPPPPGALGRGAGGGNKVHRAPELVEFYQSLMKRESKKEGAPSLISSGTGNSSAARNNMIGEIENRSTFLLAVKADVETQGDFVQSLATEVRASSFTDIEDLLAFVSWLDEELSFLVDERAVLKHFDWPEGKADALREAAFEYQDLMKLEKQVTSFVDDPNLSCEPALKKMYKLLEKVEQSVYALLRTRDMAISRYKEFGIPVDWLSDTGVVGKIKLSSVQLAKKYMKRVAYELDSVSGSDKDPNREFLLLQGVRFAFRVHQFAGGFDAESMKAFEELRSRAKTESGDNNNNNNNNSNEEESVN
B2: CHUP1_716-982, C-terminal fragment of CHUP1 (domain or fragment)
chain: NKVHRAPELVEFYQSLMKRESKKEGAPSLISSGTGNSSAARNNMIGEIENRSTFLLAVKADVETQGDFVQSLATEVRASSFTDIEDLLAFVSWLDEELSFLVDERAVLKHFDWPEGKADALREAAFEYQDLMKLEKQVTSFVDDPNLSCEPALKKMYKLLEKVEQSVYALLRTRDMAISRYKEFGIPVDWLSDTGVVGKIKLSSVQLAKKYMKRVAYELDSVSGSDKDPNREFLLLQGVRFAFRVHQFAGGFDAESMKAFEELRSRA

Key:
SEC = target: the molecule itself; assay: SEC
crystal structure = target: the molecule itself; assay: crystal structure

| Protein | stoichiometry N (SEC) | binding result (crystal structure) |
| --- | --- | --- |
| B1 | 2 |  |
| B2 |  | binds |

Reference: article doi:10.1101/2020.01.14.905984 (bioRxiv, 2020)
